{"source": "patent US20190292247A1", "about": "(DEGENRX B V, published 2019)", "binders": {"B1": {"name": "CBB-VNAR (FLAG-tagged) (VNAR)", "VNAR": "AWVDQTPRTATKETGESLTINCVLRDQNGWSRTGWYRTKLGSTNEQSISIGGRYVETVNKGSKSFSLRISDLRVEDSGTYKCQALLNPRREEFWFSRRYPVVKGAGTALTVKA", "notes": "Monomeric shark-type VNAR single domain (Mw 15 kDa); not shown: FLAG tag"}}, "key": {"[1]": {"molecular_target": "T1, amyloid beta 1-42 oligomer (UniProt P05067 672-713)", "T1 construct": "domain: amyloid beta 1-42; Soluble oligomeric aggregate; also called Aβ-oligomers; oligomeric amyloid beta 1-42", "T1 sequence (P05067 672-713 limits assumed)": "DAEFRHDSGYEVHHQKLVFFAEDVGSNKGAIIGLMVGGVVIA", "assay": "ELISA on immobilized oligomer (5 µg/ml), anti-FLAG-M2-HRP detection; ng/ml, as measured in the ELISA", "method": "To probe the binding affinities of CBB-VNAR towards different amyloid beta species and aggregation states, ELISA assays were performed. As a comparator antibody, the well-characterized 6E10 antibody was used. The 6E10 antibody recognizes N-terminal amino acid residues 3-8 of amyloid beta (EFRHDS), an epitope that is present and available for antibody binding in amyloid beta 1-42 derived antigens regardless of the physical form or aggregation state (Crisostomo et al., 2015. Data Brief. 2015 Aug. 6; 4:650-8.; Frenzel et al., 2014. PLoS One. 2014 Mar. 3; 9(3):e89490). Amyloid beta aggregates were prepared by incubation of monomeric synthetic amyloid beta 1-42 monomer in either F-12 medium (for oligomers) or 10 mM HCl (for fibrils) essentially as described by Dahlgren et al. (2002. J Biol Chem. 2002 Aug. 30; 277(35):32046-53). Amyloid beta derived antigens in different forms (oligomer, monomer, fibril, all at 5 μg/ml) were immobilized to Nunc Amino Immobilizer plates and blocked with ethanolamine according to the manufacturer's instructions. After washing, plates were probed with different concentrations of either FLAG-tagged CBB-VNAR or biotinylated 6E10 antibody (in parallel and on the same plates) for 1 hour. Bound antibody was then detected using anti-FLAG-M2-HRP (for CBB-VNAR) or with streptavidin-HRP (for 6E10-biotin). […]"}, "[2]": {"molecular_target": "T1, amyloid beta 1-42 oligomer", "assay": "Alphascreen proximity sandwich: 6E10-biotin on streptavidin donor beads, CBB-VNAR on anti-FLAG acceptor beads; the oligomer concentration is varied; Alphascreen bead sandwich with 6E10-biotin; oligomer in solution titrated; apparent EC50", "method": "(§1) The generic amyloid beta binding antibody 6E10-biotin was immobilized on streptavidin Alphascreen®donor beads, while FLAG-tagged CBB-VNAR was immobilized on anti-FLAG Alphascreen®acceptor beads. These beads were incubated with different concentrations of amyloid beta 1-42 derived antigens (oligomers, monomers, fibrils, all prepared as described in example 1). In this format, a specific signal is generated when donor/6E10 and acceptor/CBB-VNAR beads simultaneously bind to different epitopes on the same molecule. […] Plates were then read using a Perkinelmer Enspire® plate reader using the 384 well factory preset measuring protocol. […] Stable Crossbeta oligomers (Perkin Elmer Amyloid Oligomers AlphaLISA High-Specificity Detection Kit (AL334F)) were also detected using an ELISA sandwich immunoassay format where the CBB-VNAR was immobilized to Nunc amino immobilizer plates (2 μg/ml coating, 1 hr rT) to serve as oligomer capture molecule. After incubation of the CBB-VNAR coated wells with different amounts of stable oligomer for 1 hour, wells were washed and bound oligomer was detected using sequential incubation with 6E10-biotin and streptavidin-HRP as described in example 1."}, "[3]": {"molecular_target": "T2, Stable Crossbeta oligomers (Perkin Elmer Amyloid Oligomers AlphaLISA High-Specificity Detection Kit (AL334F)) (UniProt P05067 672-713)", "T2 construct": "also called Aβ-oligomers", "T2 sequence (P05067 672-713)": "as the sequence (P05067 672-713 limits assumed) above", "assay": "sandwich ELISA: CBB-VNAR coated at 2 µg/ml as capture, the stable oligomer concentration is varied, detection with 6E10-biotin and streptavidin-HRP; sandwich ELISA; CBB-VNAR coated 2 µg/ml as capture; stable Crossbeta oligomer titrated", "method": "as §1"}, "[4]": {"molecular_target": "T1, amyloid beta 1-42 oligomer", "assay": "intrinsic Trp fluorescence titration, 0.5 uM CBB-VNAR in PBS pH 7.2 with 0.5 mM EDTA, excitation 280 nm", "source_text": "The amino acid residue tryptophan (Trp or W) intrinsically fluoresces upon excitation in the range 280-295 nm. The emission intensity (i.e. quantum yield) and emission wavelength are sensitive towards the local environment of the Trp residue. The local environment can change, for example, when the Trp residue is involved in conformational changes or ligand binding. Therefore, Trp emission is widely used to study proteins and their interaction with other proteins or small molecules. […] To evaluate whether the Trp residues of CBB-VNAR are involved in the binding of amyloid beta oligomer antigen, a fluorescence titration study was performed. For this experiment, 0.5 uM CBB-VNAR or 12Y2 control VNAR were titrated with known quantities of amyloid beta oligomer (ABO) in Phosphate Buffered Saline (PBS) buffer, pH 7.2. […] After each ABO addition, the sample was equilibrated until the Trp fluorescence intensity was stable, and Trp emission spectra were recorded between 320 and 450 nm using 280 nm excitation. […] Upon addition of ABO, the emission intensity of CBB-VNAR decreases in a dose-dependent and saturable fashion where the intensity decreases to about 70% of the intensity measured for the native protein (FIGS. 5A and C). […]"}, "[5]": {"molecular_target": "T1, amyloid beta 1-42 oligomer", "assay": "intrinsic Trp fluorescence quenching; the varied concentration is that of the oligomer (ABO), with CBB-VNAR fixed at 0.5 uM", "source_text": "Therefore, Trp emission is widely used to study proteins and their interaction with other proteins or small molecules. The invariable core structure of the VNAR as isolated from wobbegong sharks has two Trp residues (see sequence below, Trp indicated in black) of which one is buried inside the protein whereas the other is exposed to the solvent (see FIG. 5D). The CBB-VNAR has two additional Trp residues in the CDR regions (one in CDR1, one in CDR3). No Trp residues are present in the CDR regions of the 12Y2 control protein. Apart from the CDR sequences, this control 12Y2 protein has an amino acid sequence identical to that of CBB-VNAR. To evaluate whether the Trp residues of CBB-VNAR are involved in the binding of amyloid beta oligomer antigen, a fluorescence titration study was performed. For this experiment, 0.5 uM CBB-VNAR or 12Y2 control VNAR were titrated with known quantities of amyloid beta oligomer (ABO) in Phosphate Buffered Saline (PBS) buffer, pH 7.2. […] After each ABO addition, the sample was equilibrated until the Trp fluorescence intensity was stable, and Trp emission spectra were recorded between 320 and 450 nm using 280 nm excitation. […] Upon addition of ABO, the emission intensity of CBB-VNAR decreases in a dose-dependent and saturable fashion where the intensity decreases to about 70% of the intensity measured for the native protein (FIGS. 5A and C). […]"}}, "data": [{"binder": "B1", "values": [{"measurement": "EC50", "setting": "[1]", "value": 0.004, "unit": "µg/mL"}, {"measurement": "EC50", "setting": "[2]", "value": 0.1, "unit": "µg/mL"}, {"measurement": "EC50", "setting": "[3]", "value": 0.01, "unit": "µg/mL"}, {"measurement": "Trp emission intensity at saturation with oligomer, relative to the native protein", "setting": "[4]", "value": "~70", "unit": "%"}, {"measurement": "EC50 (read off the curve)", "setting": "[5]", "value": "~8", "unit": "µg/mL"}]}]}
